Data: paper doi:10.1101/2022.06.02.494578
pKd: −log10 of the molar value.

Columns and labels:
[1] = target: taxol-stabilised microtubules polymerised from pig brain tubulin (pig) (UniProt P02550); experiment: TIRF imaging of labeled Lis1 on microtubules
[2] = target: taxol-stabilised microtubules polymerised from pig brain tubulin (pig) (UniProt P02550); experiment: co-sedimentation

Chain of taxol-stabilised microtubules polymerised from pig brain tubulin (pig) (P02550 whole entry): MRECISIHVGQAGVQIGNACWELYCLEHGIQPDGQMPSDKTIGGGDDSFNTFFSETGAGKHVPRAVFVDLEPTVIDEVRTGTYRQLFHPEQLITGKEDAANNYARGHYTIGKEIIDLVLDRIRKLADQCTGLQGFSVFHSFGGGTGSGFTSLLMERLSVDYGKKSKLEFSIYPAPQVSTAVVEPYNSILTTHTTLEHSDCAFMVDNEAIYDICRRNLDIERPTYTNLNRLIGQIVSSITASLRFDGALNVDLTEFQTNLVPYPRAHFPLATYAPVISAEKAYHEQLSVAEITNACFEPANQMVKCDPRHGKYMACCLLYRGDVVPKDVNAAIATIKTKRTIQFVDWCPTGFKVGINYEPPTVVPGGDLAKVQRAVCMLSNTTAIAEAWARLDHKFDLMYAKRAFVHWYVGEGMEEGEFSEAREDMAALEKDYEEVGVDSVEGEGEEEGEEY
Chain of Lis1 (Pac1, the Lis1 homolog in S. cerevisiae), wild-type dimer (P39946 whole entry): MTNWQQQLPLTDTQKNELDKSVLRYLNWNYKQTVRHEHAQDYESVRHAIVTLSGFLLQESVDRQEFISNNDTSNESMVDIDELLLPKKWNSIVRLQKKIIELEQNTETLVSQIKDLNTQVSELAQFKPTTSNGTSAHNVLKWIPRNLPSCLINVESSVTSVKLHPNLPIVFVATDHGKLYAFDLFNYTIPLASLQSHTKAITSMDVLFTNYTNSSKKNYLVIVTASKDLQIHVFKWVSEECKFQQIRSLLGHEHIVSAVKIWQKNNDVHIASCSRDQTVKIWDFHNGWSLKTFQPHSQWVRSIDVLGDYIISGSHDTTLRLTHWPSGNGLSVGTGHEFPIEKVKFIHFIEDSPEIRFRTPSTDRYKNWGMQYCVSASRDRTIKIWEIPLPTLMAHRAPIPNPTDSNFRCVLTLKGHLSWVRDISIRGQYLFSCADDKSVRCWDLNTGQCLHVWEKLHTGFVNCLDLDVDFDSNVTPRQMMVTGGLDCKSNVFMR
Chain of monomeric Lis1 lacking its amino-terminal dimerization domain (domain or fragment) (A6ZPA6 whole entry, the tested form may be a part): as the sequence (P39946 whole entry) above

percent of Lis1 intensity on microtubules lost after washing [1] [%] | residence time on the microtubule [1] [s] | pKd [2] | time to dissociation from the microtubule [1] [s] | Substance
92 | 19.3 | 7.06 | – | Lis1 (Pac1, the Lis1 homolog in S. cerevisiae), wild-type dimer (from UniProt P39946 1-494) (natural protein)
– | – | – | 1 to 2 | monomeric Lis1 lacking its amino-terminal dimerization domain (domain or fragment)
